Test results: patent publication US20200095301A1 (published 2020)
One block for each molecule: values may come before it.

Legend:
[1] = biological target: human IL-13Rα1 ectodomain, biotinylated (human) (UniProt P78552); experiment: SPR; equilibrium; conditions: ligand
[2] = biological target: human IL-13Rα1 ectodomain, biotinylated (human) (UniProt P78552); experiment: SPR; kinetic; conditions: ligand
[3] = biological target: T1, human IL-13Rα2, biotinylated (human, UniProt Q14627 27-343, biotinylated (site not stated)); experiment: SPR; kinetic
T1 chain: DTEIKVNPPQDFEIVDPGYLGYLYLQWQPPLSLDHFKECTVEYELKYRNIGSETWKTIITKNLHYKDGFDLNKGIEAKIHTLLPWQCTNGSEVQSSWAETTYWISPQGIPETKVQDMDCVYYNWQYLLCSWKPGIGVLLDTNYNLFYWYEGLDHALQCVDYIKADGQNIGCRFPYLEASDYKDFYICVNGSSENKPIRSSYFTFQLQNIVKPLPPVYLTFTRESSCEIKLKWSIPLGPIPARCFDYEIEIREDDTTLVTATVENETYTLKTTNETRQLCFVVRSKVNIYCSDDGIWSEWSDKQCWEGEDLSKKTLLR

Sequence of human IL-13Rα1 ectodomain, biotinylated (human) (P78552 other isoform, or with tags, fused parts or gaps): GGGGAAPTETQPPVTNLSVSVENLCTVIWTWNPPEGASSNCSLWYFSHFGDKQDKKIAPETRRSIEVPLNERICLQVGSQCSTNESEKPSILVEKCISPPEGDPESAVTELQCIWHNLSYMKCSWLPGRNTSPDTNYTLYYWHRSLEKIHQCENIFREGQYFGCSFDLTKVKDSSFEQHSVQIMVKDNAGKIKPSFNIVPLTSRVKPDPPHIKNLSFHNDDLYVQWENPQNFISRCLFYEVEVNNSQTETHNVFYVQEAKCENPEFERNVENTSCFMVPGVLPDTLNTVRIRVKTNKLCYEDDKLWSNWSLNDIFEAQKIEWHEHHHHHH

- Kd [1]: 4100 nM
Molecule: IL-13 superkine D7 [L10A, V18F, R86K, D87K, K89R, L101I, K104R, R108K]

- Kd [2]: 18 nM
Molecule: IL-13 variant B4 [R11S, V18I, R86K, D87G, T88S, K89M, L101Y, K104R, K105T]

- Kd [3]: 0.003 nM
B1: IL-13 superkine D7 [L10A, V18F, R86K, D87K, K89R, L101I, K104R, R108K] (ligand)
chain: PGPVPPSTAARELIEELFNITQNQKAPLCNGSMVWSINLTAGMYCAALESLINVSGCSAIEKTQRMLSGFCPHKVSAGQFSSLHVKKTRIEVAQFVKDLLIHLRKLFKEGQFNHHHHHH
